Consider eleven sequences from the DeepSol protein solubility set.

The series can be described thus: soluble on expression in E. coli; label from the status in PepcDB or PDB records.
Regarding “MGSDKIHHHHHHMAKYRIMTFDGGGTLGALSLQLLNRLARQNPKLISRTHVFSGNSIGSFTALALASGRSPRETLQYFEDEILPAFSISRPGGPVFNQQLPYSGFIKAVRNFFPADLQLIDLRKRIVVPSFKLYSQKLDRWTPVLFHNFPGSPYLNEKVSDVILRSSGAPATQRAYQNYVDGYVVATNPSTASIAFAVGKANVPLDQIAVLSIGTGEAPTRLRRDTRGWGMVSADNIRPENLKNLPPNWGVLLDRSPNEPLLPFLQMIAGGNGYYESMVSANLLGDRFFRLDPRIPNFSKTDPAVVPAVIEIANKTNLQPANQFIEKNWGSK”, the “soluble on expression in E. coli” value is “not soluble”.

For “MAHHHHHHMKNFFILHLRNNYSIFLNKPLQVFTLNVKLNSHVKVNYKHELLTYEFRKITYVKKKKKKSYHNCDGRYITTLNKTININEKYSKLKNDGLLNSTPDNHIKDNIIKEDLLYRKNNEKENEEVIKSNIDENKNVHMNDQNEQNKHCYNKLLIESCCHIDKDVKKSLLEIFQYKEFTDVQRIVYDNIIKEKKQNDLLIQAKTGTGKTIAYLLLSINDIIKNKILSVHTLIIVPTRELANQIYNECKLLLTYKHNINVLTLTGGIKRRDDQLNIRRIKPDIIICTVGRLLDHFESTYLFNTLFENLKMLIIDEADQLLSTGYENDIHRLLTYLPSNRRNILLSATLGYNLDEIRKKMCKSDYIYLNCVKDISKHTSDQLIQYVLFHKAIDTTIILYNLLIEHMRLNQFTYKIIVFFPTARATSFYAQFFINQLKISVYEIHRKKEMAHRQITANRFSMESVGILFTSDISSRGLNYPDITLIIQVNTPISREQYIHRVGRTARSNKKGMAIILLNEADELFYQEIKDLNIQKLNAQNYTLKNTNLSNYLSTWMSNTQLLYLAYAYYSSILRFYKTKYTHLKINDDEIIDAVNNMLLSTGLVEQPYISRNLATTLNMQNNVKLKIRKDLDDILLL”, the “soluble on expression in E. coli” value is “not soluble”. Next, “MSLRLALFDLDNTLLGGDSDHAWGDYLCERGFLDAVAYKTRNDEFYQDYLAGKLDNAAYLNFCLEILGRTDMVVLEEWHRDFMRDCIEPILLPKAQALLDKHRAAGDKLVIITATNRFVTAPIAERLGVETLIATECEMQDGRYTGRSTDVPCFREGKVTRLNRWLEETGHSLEDSYFYSDSMNDLPLLEQVTTAVAVDPDPNLRAEAEKRGWQVISLRDEGHHHHHH”: “soluble”; “MSDLKNLILNSSILLDTSSTVQNDLNPEQLINVHEDSDGGRDLLTPESFILLMAEILSTNNADTICEYEHQNSADNKVLQNLQFKEVEEDEQIEGLNEQKKSLDNPLWHDVDLPVINEISGNQCEGQFESTLEKNVALTWINSENFQPPIVKPENQTDETYKIWDSEITSIESGKLKLDFPKADYDGNNINPYQKEAINQPGNDSSKNHQLIKGNDSFPILEDIKTNAEPGTKAIKSEVEATKVGTEIPGSSFQMNQKAGSDIQPPVVSNSHIPKNFSIPIHVNHSQWSEQLSEHIVWLGHQDVKSALIKIHPEELGPLEINVKVVKDNASVNISTHSVYVKEIVDQAIPRLREMMAQQGINLSEVHIGTDTSSRQGSQKNHHAEIDLIQSAEDKNKITSLTRHLPKGLVDYFA”: “not soluble”; “MDRDWGGKTGGGGVASSEQTEVSRRERLRQLALETIDLKKDPYFMRNHLGGYECKLCLTLHTNEGNYLAHTQGRRHQMNLARRAAREAKEKPQTVAPPPKIVPKKTIKIGRPGYRIIKQRDPETDQLSLLFQIQYPEIAEDVQPRHRFMSSFEQKVERPDPKYQFLLFAAEPYETIAFKIPNWEIEKSEGNYYLHWDKDNKTFTLQIYFKPRSQPPVKNQQEIPSQQASVGNLMKQQRDPFAPIAFGT”: “soluble”. Then “MKAVQGDPNWNLVTDTYIEPNNFAELFSLLVPCHPKGEGKERTILVWKEKEFYKEENLAAFIVYGMNKAKKLPQFHKDEIPTLVRILRLCQEIGWYEEANDFMIAQGLAEFVHTSLEYETWDLLTQSVALNYLIIKYRIGELTDRDIEIWDRVKFNEKCITDCKHLLSHKEVLEFTFFYMCKRAKSLSKEQLNSDMMSLAMYCNTFVYDLYTHDLLRKYRKCTDFLSYYGPSQAVLACQRAVLSQISDRLDPLKTTHVDDYLYVMKEMMEHMTIGVMDRYGHFIGKLLSYVPFFEMIQVPQHAYYCEELLYICKGIEYKEETLRNYIFIQLHDCLPSFFRLFLKNKRYATIHDILFYWCDDEQRMSLEKKYNLSFIYEKYACG”, with “not soluble”. Then “CGIVGAIAQRDVAEILLEGLRRLEYRGYDSAGLAVVDAEGHMTRLRRLGKVQMLAQAAEEHPLHGGTGIAHTRWATHGEPSEVNAHPHVSEHIVVVHNGIIENHEPLREELKARGYTFVSETDTEVIAHLVNWELKQGGTLREAVLRAIPQLRGAYGTVIMDSRHPDTLLAARSGSPLVIGLGMGENFIASDQLALLPVTRRFIFLEEGDIAEITRRSVNIFDKTGAEVKRQDIESNLQYDAGDKGIYRHYMQKEIYEQPNAIKNTLTGRISHGQVDLSELGPNADELLSKVEHIQILACGTSYNSGMVSRYWFESLAGIPCDVEIASEFRYRKSAVRRNSLMITLSQSGETADTLAGLRLSKELGYLGSLAICNVPGSSLVRESDLALMTNAGTEIGVASTKAFTTQLTVLLMLVAKLSKLKGLDASIEHDIVHGLQALPSRIEQMLSQDKRIEALAEDFSDKHHALFLGRGDQYPIALEGALKLKEISYIHAEAYAAGELKHGPLALIDADMPVIVVAPNNELLEKLKSNIEEVRARGGQLYVFADQDAGFVSSDNMHIIEMPHVEEVIAPIFYTVPLQLLAYHVALIKGTDVDQPRNLAKSVTVE”, with “soluble”; and “QRISLEIMTLQPRCEDVETAEGVALTVTGVAQVKIMTEKELLAVACEQFLGKNVQDIKNVVLQTLEGHLRSILGTLTVEQIYQDRDQFAKLVREVAAPDVGRMGIEILSFTIKDVYDKVDYLSSLGKTQT”, with “soluble”. For “MKYFNVGKIVNTQGLRGEVRVLSVTDFADERFKKGSQLALFDKKDHFAMTVEIASHRKHKNFDIVKFKGLYHINDVEKYRDFTLKVTEDHLADLEDGEFYYHEIIGLDVYENDILIGQVKEILQPGANDVWVVKRKGKKDLLLPYIPSVILKVDVPNGRIDVTVLEGLDDENLEHHHHHH”, the “soluble on expression in E. coli” value is “soluble”. Next, “MFENNETLIVWSETDVMDLALSFQEKSGCEELWQKICEVQGRDPGDPDATFDDGDDSDVGEMPSSASRLQLPPIEIGRLGELDALLHMHLTTNSAREKMTLAIENDNVVTKLCEVFRMCEDIEHTEGLRTFYSIVKNLFMLNRNTVIEMLLDDNNIKDVIGMFEFDPAYKHPRKHRDFVYKKAKFREVLNISCDELRDKIHRLYRAQYIQDACLPSLGLFEENLLSTLSSHVFFCRVDIVTLLQKDKKAMSELFGQLISEETDVIRRRDLALFLKEMISLSTSIPSNGPAATKETFFKVLQNMFNSEILDSLEPCFKSPDHETRAVMVDVLRTMVDANAQMIRDFLLKQSKTKDKNEDVLLNMMIRHLLTDIDVHLTSGSEIVLIMKTLLDPENMTTVKSERSDFLQLFYNRCYESLLKPILENVSGGNIKKDDYMIANRQSVILRLLTFCVEHHSFSMRQRCVSNDLMNKVLVLLKSKHSFLVLSALKLLQRVVTVKDDKYIRYIVKEKVLDPVMECFRKNGNRYNIINSSVLHLFEFVRSEDVRPLIKYVVENHMEVVDSVNYVKTFKEIKIRYDQHRDREETMSVRSEDNSLASPRSFRKDRNEDQWFDEDEDLEVGTMLESIEKDSVAVSPKKEEAGQRKTGMEPMFPSLLKRKNAFDDDEAPVFGGGSAAVINNTEKKIVIKVNSDRSPSRTPSPASSPRASSSPGPSRDDEVTSSQNNKESSPTPTVKSLVDYDESDDSDDDPPSPDAVPSSSTGSPEKEGDSADGKKGDSPEYNDVSSTSNEEKFDSRNGAPVTNENGGVEAAAPTVEISRKRTSDGIDPDAKRIRTEETAPAATATVSQA”: “not soluble”; “MGSDKIHHHHHHMAGTHLFHGCQAAPLLPESTPFYCTRTIFFKPAFYCVEGSGVKTNPMKINAGTPDSVNQQVIVIGAGVIGLANAVTLARRGFKVTVIDKEGVAAGASFGNAGHFATEQVFPLADPSLLPKLPKMLLDPLGPFRIRPAYFHRALPWFVRFIVNMMPARRQHNGNAIKALNARSMAATKELLTFCGRADLLVENGSLLVFETQDPRVMEQELALYNDAGIAVRLLSGDEARALEPDLSDAISGALWFTEVGHTPNPRAICEALADTLKALGGRIEIDSVCSLQGGNTPSVTTETGKVTKADKLLLCAGAWSRPLALKLGHRVPLETERGYHLMMPQHSGLKRPVASYERKFIITPMEDGTRLAGTVEFGGLNAPMSNARADCLLPHARVLLPKVFATARVSEGKRWMGFRPSLPDSLPVLGESQTPGVYFAFGHQHLGLTWAASSAELLGQLICGETPSIDLSPYCVKRFD”: “not soluble”.
